# Results: patent US20100074852A1
# How the values were obtained:
# [1] = target: human Neurokinin NK2 receptor (human) (UniProt P21452); test: radio-ligand competition binding (CEREP), reference compound, human receptor in recombinant mammalian cells; radioligand not named
# [2] = target: human Neurokinin NK2 receptor (human) (UniProt P21452); test: radio-ligand competition binding (CEREP), second screen, reference compound; radioligand not named
# Sequence of human Neurokinin NK2 receptor (human) (P21452 whole entry): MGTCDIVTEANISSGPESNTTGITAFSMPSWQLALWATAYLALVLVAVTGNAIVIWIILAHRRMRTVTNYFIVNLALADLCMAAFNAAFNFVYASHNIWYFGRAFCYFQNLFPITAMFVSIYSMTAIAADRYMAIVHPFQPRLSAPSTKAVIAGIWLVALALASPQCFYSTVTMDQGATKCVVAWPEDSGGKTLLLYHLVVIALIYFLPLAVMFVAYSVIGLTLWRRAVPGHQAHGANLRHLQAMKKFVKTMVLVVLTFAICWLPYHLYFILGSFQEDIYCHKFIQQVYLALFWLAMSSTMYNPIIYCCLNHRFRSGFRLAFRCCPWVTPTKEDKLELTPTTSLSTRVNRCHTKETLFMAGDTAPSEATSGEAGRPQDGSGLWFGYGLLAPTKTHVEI
substance,measurement,setting,value
[Nle10]-NKA(4-10) (from UniProt P20366 101-107) (peptide),IC50,[1],9.3 nM
same,IC50,[2],9.7 nM
